Holding throughout (assay type): biochemical
Data set [1] in a line: HTP-analysis of supernatants pretreated with base (MUGal hydrolysis). As to conditions: activity of the variant/activity of Rd7BB (SEQ ID NO: 44); challenge at pH 7.5. In short, it runs like this: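 Fluorescence of released 4-MU (Ex 355 nm, Em 448 nm) after carbonate quench reports MUGal hydrolysis by GLA variants secreted from INVSc1 yeast. Before the acidic (pH 4.3-4.8) 30-180 min reaction at 37° C, supernatants had been pre-incubated at pH 7.0-9.7 for 1-18 h at 37° C.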

Data set [2] is described as follows: HTP-analysis of supernatants pretreated with acid (MUGal hydrolysis). To be noted: activity of the variant/activity of Rd7BB (SEQ ID NO: 44); challenge at pH 3.5. In short, it runs like this:
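Fluorescence of MUGal hydrolysis (Ex. 355 nm, Em. 448 nm) is read after sodium carbonate quench. The enzyme source is INVSc1 yeast culture supernatant, first exposed to pH 3.3-4.3 McIlvaine buffer at 37° C. for 1-3 h, then reacted at pH 4.8 for 30-180 minutes.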

The nature of data set [3]: HTP-analysis of yeast culture supernatants, no challenge (MUGal hydrolysis). To be noted: activity of the variant/activity of Rd7BB (SEQ ID NO: 44). In short, it runs like this: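 GLA variants were expressed in INVSc1 yeast grown in SD-Ura broth with glucose at 30° C., and culture supernatants were collected after 66-84 h. Supernatant was mixed with McIlvaine buffer pH 4.8 and MUGal (2 mM stock) in 50 mM citrate, 200 mM KCl, pH 4.6, incubated at 37° C. for 30-180 minutes, then quenched with sodium carbonate.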

Positions count from the first letter of the chain named.

The text below walks through data of patent US11278600B2, “Human alpha-galactosidase variants” (Codexis, Inc., priority 2014, dated 2022).

B1: 663 (protein)
chain: LDNGLARTPTMGWLHWERFMCNLDCQEEPDSCISEKLFMEMADRMVTEGWKDAGYEYLCIDDCWMAPQRDSEGRLQADPQRFPHGIRQLANHVHSKGLKLGIYADVGNKTCAGFPGSFGYYDIDAQTFADWGVDLLKFDGCYCDSLENLADGYKHMSLALNRTGRPIVYSCEWPLYMWPFQKPNYTEIRQYCNHWRNFADIDDSWASIKSILDWTSRNQERIVDVAGPGGWNDPDMLVIGNFGLSWDQQVTQMALWAIMAGPLFMSNDLRAISPQAKALLQDKDVIAINQDPLGKQGYQLRKGDNFEVWERPLSGDAWAVAIINRQEIGGPRSYTIPVASLGKGVACNPACFITQLLPVKRQLGFYNATSRLKSHINPTGTVLLQLENTMQTSLKDLL
modifications: Synthetic Polypeptide sequence of Variant No. 663 of mature Human GLA
As to B1, the “Relative Activity of GLA Variants After Challenge at pH 7.5” value (shortened to “Relative Activity … at pH 7.5”) in data set [1] is recorded as “− (<0.5 relative activity to Rd7BB (SEQ ID NO: 44))”. For the same molecule, in data set [2], the “Relative Activity of GLA Variants After Challenge at pH 3.5” value (shortened to “Relative Activity … at pH 3.5”) is reported as “+ (>0.5 to 1.5 relative activity over Rd7BB (SEQ ID NO: 44))”. The “Relative Activity of GLA Variants After No Challenge (NC)” value in data set [3] is given as “+ (>0.5 to 1.5 relative activity over Rd7BB (SEQ ID NO: 44))”.

B2: 674 (protein)
chain: B1 chain with D43E, P234H, G261A, A368W
modifications: Synthetic Polypeptide sequence of Variant No. 674 of mature Human GLA
As for B2, in data set [1], the “Relative Activity … at pH 7.5” value is “− (<0.5 relative activity to Rd7BB (SEQ ID NO: 44))”. In addition, the “Relative Activity … at pH 3.5” value in data set [2] is given as “− (<0.5 relative activity to Rd7BB (SEQ ID NO: 44))”. Also, in data set [3], the “Relative Activity of GLA Variants After No Challenge (NC)” value is “− (<0.5 relative activity to Rd7BB (SEQ ID NO: 44))”.

B3: 675 (protein)
chain: B1 chain with D43E, M65V, G261A, A368W
modifications: Synthetic Polypeptide sequence of Variant No. 675 of mature Human GLA
In the case of B3, the “Relative Activity … at pH 7.5” value in data set [1] is listed as “− (<0.5 relative activity to Rd7BB (SEQ ID NO: 44))”. Also, the “Relative Activity … at pH 3.5” value in data set [2] is recorded as “+ (>0.5 to 1.5 relative activity over Rd7BB (SEQ ID NO: 44))”. In addition, the “Relative Activity of GLA Variants After No Challenge (NC)” value in data set [3] is “+ (>0.5 to 1.5 relative activity over Rd7BB (SEQ ID NO: 44))”.

B4: 676 (protein)
chain: B1 chain with M39E, D43E, G261A
modifications: Synthetic Polypeptide sequence of Variant No. 676 of mature Human GLA
For B4, the “Relative Activity … at pH 7.5” value in data set [1] was “+ (>0.5 to 1.5 relative activity over Rd7BB (SEQ ID NO: 44))”. In data set [2], the “Relative Activity … at pH 3.5” value is recorded as “+ (>0.5 to 1.5 relative activity over Rd7BB (SEQ ID NO: 44))”. The “Relative Activity of GLA Variants After No Challenge (NC)” value in data set [3] is “+ (>0.5 to 1.5 relative activity over Rd7BB (SEQ ID NO: 44))”.

B5: 664 (protein)
chain: B1 chain with T10P, D43E, Q252H, M253R, A254E, A368W
modifications: Synthetic Polypeptide sequence of Variant No. 664 of mature Human GLA
On to B5, for which the “Relative Activity … at pH 7.5” value in data set [1] is “− (<0.5 relative activity to Rd7BB (SEQ ID NO: 44))”. In data set [2], the “Relative Activity … at pH 3.5” value was “− (<0.5 relative activity to Rd7BB (SEQ ID NO: 44))”. The “Relative Activity of GLA Variants After No Challenge (NC)” value in data set [3] is given as “− (<0.5 relative activity to Rd7BB (SEQ ID NO: 44))”.

B6: 670 (protein)
chain: B1 chain with D43E, G261A, N305L, A368W
modifications: Synthetic Polypeptide sequence of Variant No. 670 of mature Human GLA
Regarding B6, the “Relative Activity … at pH 7.5” value in data set [1] is listed as “+ (>0.5 to 1.5 relative activity over Rd7BB (SEQ ID NO: 44))”. Further, the “Relative Activity … at pH 3.5” value in data set [2] is “+ (>0.5 to 1.5 relative activity over Rd7BB (SEQ ID NO: 44))”. Moreover, the “Relative Activity of GLA Variants After No Challenge (NC)” value in data set [3] is reported as “+ (>0.5 to 1.5 relative activity over Rd7BB (SEQ ID NO: 44))”.

B7: 666 (protein)
chain: B1 chain with D43E, P228L, G261A, A368W
modifications: Synthetic Polypeptide sequence of Variant No. 666 of mature Human GLA
Consider B7, for which the “Relative Activity … at pH 7.5” value in data set [1] is on record as “− (<0.5 relative activity to Rd7BB (SEQ ID NO: 44))”. Besides, the “Relative Activity … at pH 3.5” value in data set [2] was “+ (>0.5 to 1.5 relative activity over Rd7BB (SEQ ID NO: 44))”. For the same molecule, the “Relative Activity of GLA Variants After No Challenge (NC)” value in data set [3] is “+ (>0.5 to 1.5 relative activity over Rd7BB (SEQ ID NO: 44))”.

B8: 672 (protein)
chain: B1 chain with D43E, D144Y, G261A, A368W
modifications: Synthetic Polypeptide sequence of Variant No. 672 of mature Human GLA
B8: the “Relative Activity … at pH 7.5” value in data set [1] is listed as “− (<0.5 relative activity to Rd7BB (SEQ ID NO: 44))”. Further, the “Relative Activity … at pH 3.5” value in data set [2] was “+ (>0.5 to 1.5 relative activity over Rd7BB (SEQ ID NO: 44))”. The “Relative Activity of GLA Variants After No Challenge (NC)” value in data set [3] is on record as “+ (>0.5 to 1.5 relative activity over Rd7BB (SEQ ID NO: 44))”.

B9: 673 (protein)
chain: B1 chain with D43E, G261A, A368W, N377Y
modifications: Synthetic Polypeptide sequence of Variant No. 673 of mature Human GLA
As to B9, in data set [1], the “Relative Activity … at pH 7.5” value is recorded as “− (<0.5 relative activity to Rd7BB (SEQ ID NO: 44))”. Further, the “Relative Activity … at pH 3.5” value in data set [2] is recorded as “+ (>0.5 to 1.5 relative activity over Rd7BB (SEQ ID NO: 44))”. Besides, the “Relative Activity of GLA Variants After No Challenge (NC)” value in data set [3] is “+ (>0.5 to 1.5 relative activity over Rd7BB (SEQ ID NO: 44))”.

B10: 665 (protein)
chain: B1 chain with R7C, D43E, G261A
modifications: Synthetic Polypeptide sequence of Variant No. 665 of mature Human GLA
With B10, the “Relative Activity … at pH 7.5” value in data set [1] is given as “+ (>0.5 to 1.5 relative activity over Rd7BB (SEQ ID NO: 44))”. The “Relative Activity … at pH 3.5” value in data set [2] was “+ (>0.5 to 1.5 relative activity over Rd7BB (SEQ ID NO: 44))”. Moreover, the “Relative Activity of GLA Variants After No Challenge (NC)” value in data set [3] is on record as “+ (>0.5 to 1.5 relative activity over Rd7BB (SEQ ID NO: 44))”.

B11: 668 (protein)
chain: B1 chain with M39E, D43E, G261A, A368W
modifications: Synthetic Polypeptide sequence of Variant No. 668 of mature Human GLA
With B11, the “Relative Activity … at pH 7.5” value in data set [1] is “+ (>0.5 to 1.5 relative activity over Rd7BB (SEQ ID NO: 44))”. In addition, in data set [2], the “Relative Activity … at pH 3.5” value was “+ (>0.5 to 1.5 relative activity over Rd7BB (SEQ ID NO: 44))”. Besides, the “Relative Activity of GLA Variants After No Challenge (NC)” value in data set [3] is listed as “+ (>0.5 to 1.5 relative activity over Rd7BB (SEQ ID NO: 44))”.

B12: 639 (protein)
chain: B1 chain with M39E, D43E, D247Y, G261A, A368W
modifications: Synthetic Polypeptide sequence of Variant No. 639 of mature Human GLA
As to B12, the “Relative Activity … at pH 7.5” value in data set [1] is listed as “− (<0.5 relative activity to Rd7BB (SEQ ID NO: 44))”. Besides, the “Relative Activity … at pH 3.5” value in data set [2] is recorded as “− (<0.5 relative activity to Rd7BB (SEQ ID NO: 44))”. For the same molecule, the “Relative Activity of GLA Variants After No Challenge (NC)” value in data set [3] is recorded as “− (<0.5 relative activity to Rd7BB (SEQ ID NO: 44))”.

B13: 671 (protein)
chain: B1 chain with T10P, D43E, G261A
modifications: Synthetic Polypeptide sequence of Variant No. 671 of mature Human GLA
B13: the “Relative Activity … at pH 7.5” value in data set [1] is recorded as “+ (>0.5 to 1.5 relative activity over Rd7BB (SEQ ID NO: 44))”. In addition, the “Relative Activity … at pH 3.5” value in data set [2] is given as “++ (>1.5 relative activity over Rd7BB (SEQ ID NO: 44))”. The “Relative Activity of GLA Variants After No Challenge (NC)” value in data set [3] was “++ (>1.5 relative activity over Rd7BB (SEQ ID NO: 44))”.

B14: 669 (protein)
chain: B1 chain with D43E, G261A, P262S, A368W
modifications: Synthetic Polypeptide sequence of Variant No. 669 of mature Human GLA
As to B14, the “Relative Activity … at pH 7.5” value in data set [1] is given as “− (<0.5 relative activity to Rd7BB (SEQ ID NO: 44))”. Also, the “Relative Activity … at pH 3.5” value in data set [2] is “− (<0.5 relative activity to Rd7BB (SEQ ID NO: 44))”. The “Relative Activity of GLA Variants After No Challenge (NC)” value in data set [3] is on record as “+ (>0.5 to 1.5 relative activity over Rd7BB (SEQ ID NO: 44))”.

B15: 667 (protein)
chain: B1 chain with D30G, D43E, G261A, A368W
modifications: Synthetic Polypeptide sequence of Variant No. 667 of mature Human GLA
Turning to B15, in data set [1], the “Relative Activity … at pH 7.5” value is “+ (>0.5 to 1.5 relative activity over Rd7BB (SEQ ID NO: 44))”. Moreover, the “Relative Activity … at pH 3.5” value in data set [2] was “+ (>0.5 to 1.5 relative activity over Rd7BB (SEQ ID NO: 44))”. The “Relative Activity of GLA Variants After No Challenge (NC)” value in data set [3] is reported as “+ (>0.5 to 1.5 relative activity over Rd7BB (SEQ ID NO: 44))”.
